The experiment addresses EphA4 receptor extracellular domain fused to a human Fc region (human). As to the kind of experiment: inhibition of ephrin-A5 AP binding to EphA4.

EphA4 receptor extracellular domain fused to a human Fc region (human), sequence (Q03137 20-547): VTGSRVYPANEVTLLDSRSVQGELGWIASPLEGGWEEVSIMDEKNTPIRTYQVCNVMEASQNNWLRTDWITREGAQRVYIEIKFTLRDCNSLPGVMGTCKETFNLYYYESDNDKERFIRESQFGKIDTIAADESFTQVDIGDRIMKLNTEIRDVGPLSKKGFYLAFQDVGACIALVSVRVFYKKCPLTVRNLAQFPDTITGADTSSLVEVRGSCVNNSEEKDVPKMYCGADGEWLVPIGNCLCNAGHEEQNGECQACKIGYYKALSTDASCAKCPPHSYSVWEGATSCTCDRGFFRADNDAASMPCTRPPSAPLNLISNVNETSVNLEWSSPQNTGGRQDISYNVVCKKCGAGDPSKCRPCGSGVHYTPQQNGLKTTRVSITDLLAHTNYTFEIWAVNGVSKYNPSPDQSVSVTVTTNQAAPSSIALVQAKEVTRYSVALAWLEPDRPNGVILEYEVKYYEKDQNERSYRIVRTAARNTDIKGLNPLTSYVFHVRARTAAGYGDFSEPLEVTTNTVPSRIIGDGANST

The substance APY peptide (synthetic, biotinylated) returned a concentration required for similar levels of inhibition of ephrin-A5 AP binding of 10 µM. In the case of KYL peptide (synthetic, biotinylated), the concentration that almost completely inhibited ephrin-A5 AP binding is 1 µM. Turning to VTM peptide (synthetic, biotinylated), the concentration required for similar levels of inhibition of ephrin-A5 AP binding stood at 100 µM.

The values are drawn from patent US20040180823A1.
